According to publication PMC4347645:

Biological target: desmoplakin (DP), endogenous (human (endogenous in HEK 293 and SCC9)) (UniProt P15924)
Assay: proximity ligation

Chain of GSK3, endogenous in SCC9 cells (P49841 whole entry): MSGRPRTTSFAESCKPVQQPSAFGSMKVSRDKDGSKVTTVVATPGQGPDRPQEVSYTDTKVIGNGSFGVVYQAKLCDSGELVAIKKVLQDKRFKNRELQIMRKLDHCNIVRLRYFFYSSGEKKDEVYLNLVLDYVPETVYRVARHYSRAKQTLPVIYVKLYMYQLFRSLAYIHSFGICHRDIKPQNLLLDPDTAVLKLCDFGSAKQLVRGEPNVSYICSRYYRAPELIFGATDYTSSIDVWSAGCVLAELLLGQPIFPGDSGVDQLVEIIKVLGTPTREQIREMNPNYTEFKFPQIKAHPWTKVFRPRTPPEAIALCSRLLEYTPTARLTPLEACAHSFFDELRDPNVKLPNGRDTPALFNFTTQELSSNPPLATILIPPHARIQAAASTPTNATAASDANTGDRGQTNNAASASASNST
Chain of desmoplakin (DP), endogenous (human (endogenous in HEK 293 and SCC9)) (P15924 whole entry): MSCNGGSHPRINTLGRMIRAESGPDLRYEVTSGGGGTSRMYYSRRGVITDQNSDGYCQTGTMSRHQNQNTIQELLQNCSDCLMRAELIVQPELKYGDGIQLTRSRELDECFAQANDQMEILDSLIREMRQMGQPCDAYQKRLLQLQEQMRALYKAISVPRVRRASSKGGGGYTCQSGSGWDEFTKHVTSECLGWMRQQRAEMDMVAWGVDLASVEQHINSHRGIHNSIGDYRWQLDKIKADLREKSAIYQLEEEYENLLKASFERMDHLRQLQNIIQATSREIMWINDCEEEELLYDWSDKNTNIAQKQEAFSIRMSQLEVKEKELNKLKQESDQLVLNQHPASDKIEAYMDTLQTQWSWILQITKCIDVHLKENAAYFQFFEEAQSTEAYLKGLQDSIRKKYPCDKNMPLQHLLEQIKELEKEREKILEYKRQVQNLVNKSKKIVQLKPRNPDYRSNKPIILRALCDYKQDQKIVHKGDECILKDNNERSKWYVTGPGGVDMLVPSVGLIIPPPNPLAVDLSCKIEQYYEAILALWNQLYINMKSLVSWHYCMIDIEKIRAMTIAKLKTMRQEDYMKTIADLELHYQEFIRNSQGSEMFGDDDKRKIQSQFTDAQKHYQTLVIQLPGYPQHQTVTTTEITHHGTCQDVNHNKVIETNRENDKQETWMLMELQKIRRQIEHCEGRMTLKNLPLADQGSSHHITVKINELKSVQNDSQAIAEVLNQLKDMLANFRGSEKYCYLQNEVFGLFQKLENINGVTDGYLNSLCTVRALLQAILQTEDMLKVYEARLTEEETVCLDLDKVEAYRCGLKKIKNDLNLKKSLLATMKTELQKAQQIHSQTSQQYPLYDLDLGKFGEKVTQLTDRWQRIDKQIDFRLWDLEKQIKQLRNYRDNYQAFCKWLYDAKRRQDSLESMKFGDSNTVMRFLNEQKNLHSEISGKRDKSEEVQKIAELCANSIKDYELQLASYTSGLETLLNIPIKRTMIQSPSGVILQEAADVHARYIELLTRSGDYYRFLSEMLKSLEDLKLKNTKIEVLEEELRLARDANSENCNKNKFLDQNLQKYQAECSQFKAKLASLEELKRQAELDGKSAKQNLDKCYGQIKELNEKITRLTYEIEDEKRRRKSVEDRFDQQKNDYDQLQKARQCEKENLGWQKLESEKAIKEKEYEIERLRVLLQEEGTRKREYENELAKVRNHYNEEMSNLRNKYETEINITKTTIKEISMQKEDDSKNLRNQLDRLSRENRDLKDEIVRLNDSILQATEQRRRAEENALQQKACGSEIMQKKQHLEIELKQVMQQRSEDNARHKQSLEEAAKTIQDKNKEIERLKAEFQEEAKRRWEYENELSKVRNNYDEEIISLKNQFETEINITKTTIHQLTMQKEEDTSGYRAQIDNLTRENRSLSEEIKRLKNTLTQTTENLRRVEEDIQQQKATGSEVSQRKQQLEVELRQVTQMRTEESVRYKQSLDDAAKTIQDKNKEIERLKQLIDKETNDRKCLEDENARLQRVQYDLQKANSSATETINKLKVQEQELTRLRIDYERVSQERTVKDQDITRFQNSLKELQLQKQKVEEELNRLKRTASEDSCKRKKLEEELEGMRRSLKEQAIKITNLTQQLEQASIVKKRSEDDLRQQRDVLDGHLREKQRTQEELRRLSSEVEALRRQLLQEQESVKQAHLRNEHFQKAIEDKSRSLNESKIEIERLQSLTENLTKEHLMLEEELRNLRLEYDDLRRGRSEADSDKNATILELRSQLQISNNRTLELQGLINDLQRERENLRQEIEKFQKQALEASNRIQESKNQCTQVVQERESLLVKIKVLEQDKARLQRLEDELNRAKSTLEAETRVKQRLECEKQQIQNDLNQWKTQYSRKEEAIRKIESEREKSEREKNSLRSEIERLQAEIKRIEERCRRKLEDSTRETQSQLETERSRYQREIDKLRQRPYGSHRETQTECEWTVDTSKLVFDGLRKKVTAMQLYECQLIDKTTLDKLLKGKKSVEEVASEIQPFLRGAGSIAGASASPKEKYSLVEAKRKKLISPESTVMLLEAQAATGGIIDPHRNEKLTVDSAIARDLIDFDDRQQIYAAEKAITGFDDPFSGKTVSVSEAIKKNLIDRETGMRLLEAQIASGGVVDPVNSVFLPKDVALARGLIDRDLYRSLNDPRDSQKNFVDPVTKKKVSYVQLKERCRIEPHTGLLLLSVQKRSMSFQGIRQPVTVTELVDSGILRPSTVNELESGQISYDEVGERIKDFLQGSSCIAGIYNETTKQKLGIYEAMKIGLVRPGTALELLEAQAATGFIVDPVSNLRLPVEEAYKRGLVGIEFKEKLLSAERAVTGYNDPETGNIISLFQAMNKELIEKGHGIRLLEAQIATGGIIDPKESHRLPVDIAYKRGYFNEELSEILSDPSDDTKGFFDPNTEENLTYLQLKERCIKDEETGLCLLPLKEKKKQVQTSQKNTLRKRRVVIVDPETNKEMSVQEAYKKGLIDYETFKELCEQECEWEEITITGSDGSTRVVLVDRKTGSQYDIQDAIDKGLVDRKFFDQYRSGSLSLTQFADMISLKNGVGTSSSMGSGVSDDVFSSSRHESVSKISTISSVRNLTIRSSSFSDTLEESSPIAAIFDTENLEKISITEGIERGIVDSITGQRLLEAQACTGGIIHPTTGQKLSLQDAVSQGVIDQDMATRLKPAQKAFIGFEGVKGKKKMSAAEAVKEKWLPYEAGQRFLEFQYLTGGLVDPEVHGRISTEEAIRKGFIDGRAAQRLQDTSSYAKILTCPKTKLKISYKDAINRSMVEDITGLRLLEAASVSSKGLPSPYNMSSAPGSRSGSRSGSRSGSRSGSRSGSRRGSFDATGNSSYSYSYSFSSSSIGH

PLA fluorescent dots, fold over negative control antibody pairings: 20 fold
Substance: GSK3, endogenous in SCC9 cells (from UniProt P49841 1-420) (enzyme)
